Data taken from patent US20260069689A1 (Regeneron, published 2026).

Target: SARS-COV-2 RBD extracellular domain expressed with a C-terminal myc-myc-hexahistidine tag (SARS-COV-2 RBD-mmH) (SARS-CoV-2)
Experiment: SPR Biacore, mAb captured on anti-hFc, RBD-mmH analyte, 37 C

| Binder | Kd [nM] | koff [s⁻¹] | kon [M⁻¹ s⁻¹] | t½ [min] |
| --- | --- | --- | --- | --- |
| mAb13458 (antibody, V domains shown) VH: EVQLVESGGGLVQPGRSLRLSCAASGFTFDDYAMHWVRQAPGKGLEWVSGISWNSGSIGYADSVKGRFTISRDNAKNSLYLQMNSLRAEDTALYYCAKDIGITTPYWGQGTLVTVSS VL: AIQMTQSPSSLSASVGDRVTITCRASQDIRNDLGWYQQKPGKAPKLLIYSASSLQTGVPSRFSGSGSGTDFTLTISSLHPEDFATYYCLQDYWYTWTFGQGTKVEIKR | 1.54 | 0.00139 | 907000 | 8.3 |
| mAb13459 (antibody, V domains shown) VH: EVQLVESGGGLVQPGRSLRLSCAASGFTFDDYAMHWVRQAPGKGLEWVSGISWNSGSIGYADSVKGRFTISRDNAKNSLYLQMNSLRAEDTALYYCAKDIGITTPYWGQGTLVTVSS VL: AIQMTQSPSSLSASVGDRVTITCRASQDIRNDLGWYQQKPGKAPKLLIYSASSLQTGVPSRFSGSGSGTDFTLTISSLHPEDFATYYCLQDYNYVWTFGQGTKVEIKR | 2.6 | 0.00204 | 786000 | 5.7 |
| mAb14255 (antibody, V domains shown) VH: QVQLQESGPGLVKPSETLSLTCTVSGGSISGYYWSWIRQPPGKGLDWIGYIYYRGNTNYNPSLKSRVTISVDTSNNQFSLKLSSVTAADTAVYYCARYGEGYGDASGYHFDYWGQGTLVTVSS VL: QSALTQPASVSGSPGQSITISCTGTSSDVGSYNLVSWYQQHPGKAPKLMIYEDSKRPSGVANPFSGSKSGNTASLTISGLQAEDEADYYCSSYAGSSTWVFGGGTKLTVLG | 2.76 | 0.00535 | 1.94e+06 | 2.2 |
| mAb14294 (antibody, V domains shown) VH: EVQLVESGGGLVQPGGSLRLSCAASGFTFSNHWMDWVRQAPGKGLVWVSRINSDGSSTDYADSVRGRFTMSRDNAKNTLYLQMSSLRAEDTAVYYCAREGMIFGAVIIPGWYFDLWGRGALVTVSS VL: EIVLTQSPGTLSLSPGERATLSCRASQSVSSSQLAWYQQKPGQAPRLLIYGASSRATGIPDRFSGSGSGTDFTLTISRLEPEDFAVYYCQQYDSFGQGTKLEIKR | 0.984 | 0.00059 | 600000 | 19.6 |
| mAb14289 (antibody, V domains shown) VH: QVQLVQSGPEVKKPGASVKVSCKASGYTFTSYAISWVRQAPGQGLEWMGWISAYNGNTNYAQKLQGRVTMTTDTFTSTAYMELRSLRSDDTAVYYCAVPADHITFDYWGQGTLVTVSS VL: EIVLTQSPGTLSLSPGERATLSCRASQSVSSYLAWYQQKPGQAPRLLIHGASSRATGIPDRFSGSGSGTDFTLTISRLEPEDFAVYYCQQYGSSFLTFGGGTKVEIKR | 1.46 | 0.00176 | 1.2e+06 | 6.5 |
| mAb14247 (antibody, V domains shown) VH: QITLKESGPTLVKPTQTLTLTCTFSGFSLSTSAVGVGWIRQPPGKALEWLALIYWDDDKRYSPSLKSRLTITKDTSKNQLVLTMTNVDPVDTATYYCAHHTIQLIFDYWGQGTLVTVSS VL: QSALTQPASVSGSPGQSITISCTATSSDVGNYNYVSWYQQHPGKAPKLMIYEVSNRPSGVSNRFSGSKSGNTASLTISGLQAEDEADYYCSSYTSSSTPLVFGGGTKLTVLG | 1.95 | 0.00163 | 832000 | 7.1 |
| mAb14281 (antibody, V domains shown) VH: QVQLVQSGADVKKPGASVKVSCKTSGYIFTGYYIHWVRQAPGQGLEWMGWINPNSGGTNSAQKFQGRVTMTRDTSISTVYMELSRLRSDDTAVYYCAKSNSFSVLDYNFDYWGQGTLVTVSS VL: SSELTQDPAVSVALGQTVRITCQGDSLRSYYASWYQQKPGQAPVLVIYDKNNRPSGIPDRFSGSSSGNTASLTITGAQAEDEADYYCNSRDSSRNHLVVFGGGTKLTVLG | 5.2 | 0.00582 | 1.12e+06 | 2 |
| mAb14315 (antibody, V domains shown) VH: QVQLVQSGAEVKKPGSSVKVSCKASGDTFSTYAINWVRQAPGQGLEWMGRFIHIFGTANYAQKFQGRVTITADESTSTAYMELRSLRSEDTAVYYCARDGVDYGDYRPDYWGQGTLVTVSS VL: EIVLTQSPGTLSLSPGERATLSCRASQSVSSNYLAWYQQKPGQAPRLLIYGASSRATGIPERFSGSGSGTDFTLTISRLEPEDFAVYYCQQYGSSLYTFGQGTKLEIKR | 2.26 | 0.000985 | 435000 | 11.7 |
| mAb14256 (antibody, V domains shown) VH: QVQLQESGPGLVKPSETLSLTCTVSGGSISSHYWSWIRQPPGKGLEWIGYIYYSGSSNYNPSLKSRVTISVDTSKNQFSLKLNSVTAADTAVYYCARHYDILTGFDWFDPWGQGTLVTVSS VL: QSVLTQPPSVSGAPGQRVTISCTGSSSNIGTHYDVHWYQQLPGTAPKLLIYGNSNRPSGVPDRFSGSKSGTSASLAITGLQAEDEADYYCQSFDNSLTAPYVFGTGTKVTVLG | 8.24 | 0.0115 | 1.4e+06 | 1 |
| mAb14258 (antibody, V domains shown) VH: QLQLQESGPGLVKPSETLSLICTGSGDSISSSHYYWGWIRQPPGKGLEWIGSTYFSGSTYYNPSLKSRVSISVDTSKNQVSLKLISVTAADTAVYYCAREMGATLGDYWGPGTLVTVSS VL: QSVLTQPPSASGTPGQRVTISCSGSSSNIGNNYVYWYQQFPGTTPRLLIYRNNERPSGVPDRFSGSKSGTSASLVISGLRSEDEADYYCAAWDDSLSAHYVFGTGTKVTVLG | 0.796 | 0.0017 | 2.14e+06 | 6.8 |
| mAb14312 (antibody, V domains shown) VH: EVQLVESGGGLVQPGGSLRLSCAASGFTVSRSYMTWVRQAPGKGLEWVSVIFTGGRTDHADSVKGRFTISRHNSKNTLYLQMNSLRTEDTAVYYCARVAIVGATGAFDIWGQGTMVTVSS VL: QSVLTQPPSVSGAPGQRVTISCTGSSSNIGAGDDVHWYQQLPGTAPKLLIYGNSNRPSGVPDRFSGSKSGTSASLAITGLQAEDEADYYCQSYDSSLSGSVVFGGGTKLTVLG | 0.631 | 0.000988 | 1.57e+06 | 11.7 |
| mAb14257 (antibody, V domains shown) VH: EVQLVESGGGLVQPGGSLRLSCAASGFTVSRSYMNWVRQAPGKGLEWVSVVFTGGTTKHTDSVKGRFTISRDNSMNTLYLQMNSLRPEDTAVYYCARVAIVETTGAFDIWGQGTMVTVSS VL: QSVLTQPPSVSGAPGQRVTISCTGTSSNIGADFDVHWYQQFPGTAPKLLIYGHTNRPSGIPDRFSGSKSGTSASLAITGLQAEDEADYYCQSYDSSLSGSVVFGGGTKLTVLG | 2.34 | 0.00762 | 3.26e+06 | 1.5 |
| mAb14284 (antibody, V domains shown) VH: QITLKESGPTLVKPTQTLTLTCTFSGFSFSTSGVGVGWIRQPPGKTLEWLALIYWDDDKRYSPSLKSRLTITKDTSKNQVVLTMTNMDPVDTATYFCAHHGIPTIFGYWGQGALVTVSS VL: QSALTQPASVSGSPGQSITISCTGTSSDLGVFNYVSWYQQHPGKAPKLMIYEVTNRPSGVSNRFSGSKSGNTASLTISGLQAEDEADYYCSSYTTSSTVFGGGTKLTVLG | 0.94 | 0.000605 | 644000 | 19.1 |
| mAb14235 (antibody, V domains shown) VH: QITLKESGPTLVKPTQTLTLTCTFSGFSLNTGGVGVGWIRQPPGNALEWLALIYWDDDKRYNPSLKTRLTISKDTSKNQVVLTMTNMDPVDTATYFCAHLTIAVIVDFWGQGTLVTVSS VL: QSALTQPASVSGSPGQSITISCTATSSDVGTYNYVSWFQHHPGKAPKLMIYEVTNRPSGVSNRFSGSKSGNTASLTISGLQAEDEADYYCSSYTTTSIVFGGGTKLTVLG | 1.37 | 0.00109 | 793000 | 10.6 |
| mAb14282 (antibody, V domains shown) VH: QVQLVQSGAEVKKPGASVKVSCKASGYIFTDHYMHWVRQAPGQGLEWMGWINPNSGATNYAQNFQGRVTMTRDTSIITVYMELSRLRSDDTAVYYCARDSSPYMIRYTMDVWGQGTTITVSS VL: QSALTQPASVSGSPGQSITISCTGTSSDVGSYNLVSWYQQHPGKAPKLMIYELTKRPSGVSNRFSGSKSGNTASLTISGLQAEDEADYYCSSYRGSVTDVVFGGGTKLTVLG | 5.37 | 0.0106 | 1.98e+06 | 1.1 |
| mAb14283 (antibody, V domains shown) VH: QVQLQESGPGLVKPSGTLSLTCDVSGGSISSNNWWSWVRQRPGKGLQWIGEIYHNENTNYNPSLKSRVIMSIDKSKNQFSLKLTSVTAADTAVYYCARGDVLDWFDPWGQGTLVTVSS VL: QSALTQPASVSGSPGQSTTISCTGTSSDVGGYNYVSWYQQYPGKAPKLMIYDVTNRPSGVSHRFSGSKSGNTASLTISGLQAEDEADYYCSSYTSSSTVIFGGGTKLTVLG | 1.17 | 0.00179 | 1.54e+06 | 6.4 |
| mAb14286 (antibody, V domains shown) VH: QVQLVQSGAEVKKPGASVKVSCKASGYTFTDYFIHWVRQAPGQGLEWMGWINPTSGGTNYAQKFRGRVTMTRDTSISTAYVELSRLRSDDTALYYCARDLPFYSDTKQFDYWGQGTLVTVSS VL: QSALTQPASVSGYPGQSITISCTGTSSDVGGYNYVSWYQQHPGKAPKLMIFDVSNRPSGVSNRFSGSKSGNTASLTFSGLQAEDEADYYCSSYTSSSTLVFGGGTKLTVLG | 3.07 | 0.0104 | 3.38e+06 | 1.1 |
| mAb14313 (antibody, V domains shown) VH: EVQLVESGGGLVQPGRSLRLSCVASGFTFDDSAMHWVRQPPGKGLEWVSGISWNSGIIGYAESVKGRFIISRDNAKNSLFLHMRGLRPEDTAVYYCARDRLELSYYYYGMDVWGQGTTVTVSS VL: not shown | 0.921 | 0.00259 | 2.81e+06 | 4.5 |
| mAb14230 (antibody, V domains shown) VH: EVQLVESGGGLIQPGRSLRLSCAASGFTFDDYAMHWVRQAPGKGLEWVSGISWNSVSIDYADSVKGRFTISRDNAKNSLYLQMTSLTVEDTALYYCAKAFGYETLTGSDYFAYWGPGTLVTVSS VL: EIVLTQSPGTLSLSPGERATLSCRASQTVISTYLAWYQQKPGQSPRLLIYGASSRATGIPDRFSGSGSGTDFTLTISRLEPEDFAVYYCQQYGSSPQLTFGGGTKVEIKR | 7.61 | 0.00876 | 1.15e+06 | 1.3 |
